# Measurements reported in the DeepSol protein solubility set.
# Test: soluble on expression in E. coli; label from the status in PepcDB or PDB records
row,Sequence,soluble on expression in E. coli
1,MLKPETIHISGPAGILETIHIPSEQVPARGVAVINHPNPLQGGTNTNKVIQTAAKALSKLGFHCYLPNLRGVGGSGGTHDYGRGETQDCLAVIDYARAQHPEAPEFALSGFSFGGYVATFAAQARTPDLLLLIGAAVCHYTDRPEPSAVPNVAKTLMIHGAEDEVVEIGKALKWAEPQDLPVITIAGSTHFFHGKLIVLRDTILRFAPVCLNG,not soluble
2,MKTAIIQLPGLNRDRDMVAALHHITGVEPLKIWQTESTIPDVDVIVIPGGFSYGDYLRCGAIGARTPVLQAVREKAQKGVTVIGICNGFQILLEAGLLPGTLMRNTSLKFVCREIKLEVVNVNTKFSRYYSKGQIICCPVAHHDGNYFVDSETLKQMEENEQIIFRYAENTNPNGSVNDIAGIINKAGNILGMMPHPENFIEPAHGGTDGRLFFQSALELAKG,not soluble
3,TTPMNLTDAIAYILRPFAVLKVPVNDIALMISVALRFIPTLMGETDKIMKAQRARGVDFGEGNLFEQMKVVVPIFIPLFVSSFNRAEELADAMEARGYQGGEGRTRFRILH,not soluble
4,MIMIFTSSCCDNLSIDEIIERAEKGDCEAQYIVGFYYNRDSAIDSPDDEKAFYWLKLAAEQGHCEAQYSLGQKYTEDKSRHKDNEQAIFWLKKAALQGHTFASNALGWTLDRGEAPNYKEAVVWYQIAAESGMSYAQNNLGWMYRNGNGVAKDYALAFFWYKQAALQGHSDAQNNLADLYEDGKGVAQNKTLAAFWYLKSAQQGNRHAQFQIAWDYNAGEGVDQDYKQAMYWYLKAAAQGSVGAYVNIGYMYKHGQGVEKDYQAAFEWFTKAAECNDATAWYNLAIMYHYGEGRPVDLRQALDLYRKVQSSGTRDVSQEIRETEDLLLEHHHHHH,not soluble
5,AETEKEKQDWIEAVQQSIAETLSDYEVAEKIWFNESNRSCADCKAPDPDWASINLCVVICKKCAGQHRSLGPKDSKVRSLKMDASIWSNELIELFIVIGNKRANDFWAGNLQKDEELHMDSPVEKRKNFITQKYKEGKFRKTLLASLTKEELNKALCAAVVKPDVLETMALLFSGADVMCATGDPVHSTPYLLAKKAGQSLQMEFLYHNKFSDFPQHDIHSEGVLSQESSQSTFLCDFLYQAPSAASKLSSEKKLLEETNKKWCVLEGGFLSYYENDKSTTPNGTININEVICLAIHKEDFYLNTGPIFIFEIYLPSERVFLFGAETSQAQRKWTEAIAKHFVPLFAENLTEADYDLIGQLFYKDCHALDQWRKGWFAMDKSSLHFCLQMQEVQGDRMHLRRLQELTISTMVQNGEKLDVLLLVEKGRTLYIHGHTKLDFTVWHTAIEKAAGTDGNALQDQQLSKNDVPIIVNSCIAFVTQYGLGCKYIYQKNGDPLHISELLESFKKDARSFKLRAGKHQLEDVTAVLKSFLSDIDDALLTKELYPYWISALDTQDDKERIKKYGAFIRSLPGVNRATLAAIIEHLYRVQKCSEINHMNAHNLALVFSSCLFQTKGQTSEEVNVIEDLINNYVEIFEVKEDQVKQMDIENSFITKWKDTQVSQAGDLLIEVYVERKEPDCSIIIRISPVMEAEELTNDILAIKNIIPTKGDIWATFEVIENEELERPLHYKENVLEQVLRWSSLAEPGSAYLVVKRFLTADTIKHCSDRSTLGSIKEGILKIKEEPSKILSGNKFQDRYFVLRDGFLFLYKDVKSSKHDKMFSLSSMKFYRGVKKKMKPPTSWGLTAYSEKHHWHLCCDSSQTQTEWMTSIFIAQHEYDIWPPAGKERKRSITKNPKIGGLPLIPIQHEGNATLARKNIESARAELERLRLSEKCDKESVDSSLKERASMVAHCLEHKDDKLRNRPRKHRSFNCLEDTEPEAPLGQPKGHKGLKTLRKTEDRNSKATLDSDHKLPSRVIEELNVVLQRSRTLPKELQDEQILK,soluble
6,MSDLVTKFESLIISKYPVSFTKEQSAQAAQWESVLKSGQIQPHLDQLNLVLRDNTFIVSTLYPTSTDVHVFEVALPLIKDLVASSKDVKSTYTTYRHILRWIDYMQNLLEVSSTDKLEINHDLDLPHEVIEKKKKAPAGGAADAAAKADEDVSKKAKKQDHPRGKPDEETLKKLREEAKAKKAAKKAANAKQQQEQQNKAPEKPKPSAIDFRVGFIQKAIKHPDADSLYVSTIDVGDEEGPRTVCSGLVKHFPLDAMQERYVVVVCNLKPVNMRGIKSTAMVLCGSNDDKVEFVEPPKDSKAGDKVFFEGFGDEAPMKQLNPKKKIWEHLQPHFTTNDGLEVIFKDEEEKDHPVRKLTNAKGESFKVASIANAQVR,not soluble
7,MGSDKIHHHHHHMSKIILVVAAHTDDEAMGCGGTIARHIAEGDEVHLLFMTDGVGSREVLAEEVIDRSSAAQQAAKILGVSSFTNLSFPDNRMDSVALLDIVKEVEVKISEIKPEIIYTHHIGDLNIDHQVTHKAVMTACRPQPGFSVKTIYAFEVLSSTEWQTSNSALFIPNVFIDITDYLPVKMDASKAYYNEMREVPHSRSLQHIELLARHRGYTVGVHAAEAFMLVREIK,not soluble
8,VIGADVPRDSQRARVYAAEAFVRTLFDRVTAHGSPTVEFFGTQLTLPPEGRFGSVASVQRYVDDVLALPAVGQNWPTVSPVRVRARRAATAAHYENHGGTGTIAVPDRHTAGWAMRELVVLHEVAHHLCQVPPPHGPEFVATVCTLTELVMGPEVGHVFRVVYAQEGVR,soluble
9,MSVELWQQCVDLLRDELPSQQFNTWIRPLQVEAEGDELRVYAPNRFVLDWVNEKYLGRLLELLGERGEGQLPALSLLIGSKRSRTPRAAIVPSQTHVAPPPPVAPPPAPVQPVSAAPVVVPREELPPVTTAPSVSSDPYEPEEPSIDPLAAAMPAGAAPAVRTERNVQVEGALKHTSYLNRTFTFENFVEGKSNQLARAAAWQVADNLKHGYNPLFLYGGVGLGKTHLMHAVGNHLLKKNPNAKVVYLHSERFVADMVKALQLNAINEFKRFYRSVDALLIDDIQFFARKERSQEEFFHTFNALLEGGQQVILTSDRYPKEIEGLEERLKSRFGWGLTVAVEPPELETRVAILMKKAEQAKIELPHDAAFFIAQRIRSNVRELEGALKRVIAHSHFMGRPITIELIRESLKDLLALQDKLVSIDNIQRTVAEYYKIKISDLLSKRRSRSVARPRQVAMALSKELTNHSLPEIGVAFGGRDHTTVLHACRKIAQLRESDADIREDYKNLLRTLTT,not soluble
10,AHHHHHHGSIDPRELAISAKLEGVKRIIPVVSGKGGVGKSLISTTLALVLSEQKYKVGLLDLDFHGASDHVILGFEPKELPEEDKGVIPPTVHGIKFMTIAYYTEDRPTPLRGKEISDALIELLTITRWDELDFLVVDMPPGMGDQFLDVLKYFKRGEFLIVATPSKLSLNVVRKLIELLKEEKHQILGIVENMKLDEEEDVMRIAQEYGIRYLGGIPLYRDLESKVGNVNELLATEFAEKIRGIAKKI,soluble
11,GDYTTLTFRVSTHIEEAAPTSCPAEHPHTVAQGDYLIVAKSNRMSTGNDELGSILMRAFVNAIGELDRLPSHIILYNTGVLLAVEGTDTAETLAELNKKHGIPIIVCGTCADYYEVKDKLRIGTISNMYRIMQLQVATRHIIYP,not soluble
12,MARMLTAADVEAAGGKLILAAGDRLTPLARDRARELGIVVEAAGLSSGVSTPSASPTSTSAPVVKSPLAAPAPAPVPAARPATPVAPPAATGSRPLALPPSGALYRRNALGPSAQSSRAVDGRPKAGVVGAGHVGAMTALRLAESDLFSEVALVDVVPGLAAGLALDMWHGAGLYGFSTRLSGSDDLVALAGAEYIVITAGKPRQPGMSRTDLTVVNAEIMTSVCRGIRTHAPNSTLVIVSNPLEEMTHLAAQQTGFPEERVLGMAGVLDSARFCALVGLTGKARPQEVRAVALGSHGPEMVIPLSQAFVGDRPIESMFDAETLKALVERARESGGEVVKLLQKGSAYFSPAESAVTMVRAMVRDSGEVIAACVRSRGAYGAVDTRVGLPVRLHRRGLKEIVPLTLRPAEQQALQDAAARIAARIAELPAPC,not soluble
13,MAHHHHHHMKCFYITEKGKKQNFRNIKLITFDLDHTIWNIDGLLNYADKECYEYMKKNYRRLYDYLQEEYQLSITNLVKQLLENKIEDNNDGVQTLTNMRIDALKFLAKKTNYDEGKFVSEIQELWKEKKNDVHLFISPGTLEYLRELKRRGYTLGAITNGDSDVNGIKFLNEIFTFVIRSMDYNHSKPSVEIFNIAENILKKKNFHFEIHQWMHVGDDVYTDIMGAKNKNINCAWITMFRDGSEVPPNDWYPYLKLKLEENGDSHLSQYDPFADGLFSRFRRRDVVLPYEYIDIE,not soluble
14,MPVFKRYMRSPRLKAKHVMSTPPVTIEVGRSIAEAARLMAERGVGSLIVVDKQGLVKGILTERDIINSLASGKACAEGKVEDIMSRNPIVASPDDDLEIIIEKMRDMNIRHIPVIDEDGRPLGMISVRDIIDLGVSALKLFVE,soluble
15,MGSDKIHHHHHHMTDNFFHGVRVRESTDLVTAINDIDSTVIGIVAIADDADPEMFPLNTPVLLTRVNNALGKAGKTGSLYKSLKAISDQCSTKVIVVRVAAATDGDDNQTQSQLVIGGTAADGSYTGMYAFLTAEQKTGYRPRILAVPDHDTIEVATQLGVIAQKLRAFFYAYCHNCETIAEAKAYRETLNYREVMPIWPNFIAYNTLTGENEEFPAVAYACGLRALIDNTQGWHKSLSNVAVNNVLGISKDVFWALQAEDSDANELNAHEITTLIKRDGFRFWGNRTTDPDKEYIFEVYTRTAQILADSIAEAQFTTVDKPMTPGNVKDVVSGINAKLQALVTAGKLIGAACWFDIVDNPTTGLRQGKCIVRYNYTPVPPLEDLSLYQTFTDQYFETAFSSLGGA,not soluble
16,MAKYQSMLVVIDPNQDDQPALRRAVYLHQRIGGRIKAFLPIYDFSYEMTTLLSPDERTAMRQGVIAQRTAWIREQAKFYLESGVPIDVKVVWHNRPFEAIIQEVVSEKHDLLLKMAHQHDKLEAVIFTPTDWHLLRKCPCPVWMVKDQPWPEGGKALVAVNLASEENYHNTLNEKLVRETLSLAEEVNHTEVHLIGAYPVTPINIAIELPDFDPSVYNDAIRGQHLLAMKALRQKFGIDEKFTHVEKGLPEEVIPDLAEHLQAGIVVLGTVGRTGLSAAFLGNTAEQVVDHLRCDLLVLKPEAYQTPVELDDDDDD,not soluble
17,MGSDKIHHHHHHVPVADRVSKVDVIAFRLAAHHLDERLGEGGLLDAAGRCGIQNSPPGSALLALHARVRNLTQQQVAGAVAKEKSLLQTWCMRGSPFYFPALDAPVFTTGVLPPTEEAMRHLVVGVEPALDKLGISLTEAVELADAEIHEVLSGRRLAINELGAEIATRIARRLPKRQRDIWEDNGPYAPGQPLGEGVVHFCVRILTLQRVLCLAPRVGNQSPFVLVDEWLGDPIPDIDPELARAELLRRYLRCYGPSTRGDFASWAGVHAGDTGPWWNLVGTELTPVEFGGTSWILTEDLDALRSAPAPTGVRLLPPGDPYTQMRDRETIVDKKYHREVWRMAGGPGTVLAGGKITGTWRSRKSGRKLALTITTFGSLPDRDRTSLQGEAGQVAALRGASSVDVAFGTY,not soluble
18,MKIAFLFRTSPHGTSISREGLDAILAATAFCEPNDIGIFFIDDGVLNLIDNQQPEIIQQKDFIRTFKLLDLYDVEQRFICTASLQKFKLDNRELILSCEKIDRSLLLEKLNQAGKLFTF,not soluble
19,MSLATKFQESEQQGRKREFMNQRNAFFILELELTQEETDAFLPLYNELDTKRYELWKDVRQKRALMERKAELTDADMELIINKSLDNKIAEARLEKEYYYKFKRVLPMRKVMALKVAERKFARLFLKSSYDEGHHHHHH,soluble
20,AGKPDWDWQPAPKNEALIAAVSAAAQEGLNAAYQIREKQARTTKLREVYAAVQAAMAEQAAQAGQPAPDSVGVDNILFDLEARIVRSQILNGEPRIDGRDTRTVRP,not soluble
21,MGSDKIHHHHHHMAFWQSKTLTEMTSQEWESLCDGCGKCCLNKLIDDETEELYYTNAACLLLDHQTTSCQHYSDRFRYVPQCTVITAQNVHELTWLPDSCAYRRLAAGRALPSWHPLLTGSKDAMHLAGMSIQGKVVDERRVKDIEDHIVLWPLKDLD,not soluble
